According to article PMC5940305, “The Rab11-binding protein RELCH/KIAA1468 controls intracellular cholesterol distribution” (The Journal of Cell Biology, 2018):
Blank lines part the entries; values can stand above or below the molecule they belong to.

Key:
OSBP = molecular target: T1, OSBP (Homo sapiens, UniProt P22059); test: liposome sterol transfer, DHE to dansyl-PE FRET; type: biochemical; details: lipid transfer substrate (not catalysis); with RELCH, Rab11a(Q70A)-His/GTP and myristoylated Arf1(Q71L)-Flag; RE-like donor and Golgi-like PI4P acceptor liposomes; 200 nM OSBP; pH 7.2; room temperatur
T1 construct: full-length, Flag-tagged, tag kept; 807 residues (deletion series ends at 807)

[1] = molecular target: T2, GST-RELCH_(497-779) (Rab-binding domain) (mouse, UniProt Q148V7 497-779); test: pull-down; 10 µg GST-RELCH (RBD) on 20 µl Glutathione Sepharose 4B, 10 µg Rab11a (Q70A)-His loaded with GTP in 500 µl; immunoblot with Rab11 and GST antibodies; details: both partners purified
T2 construct: also called GST-RELCH (RBD); source: E. coli Rosetta II (pFAT2), purified (Ni-NTA agarose); not shown: GST, N-terminal, kept
T2 sequence (looked up): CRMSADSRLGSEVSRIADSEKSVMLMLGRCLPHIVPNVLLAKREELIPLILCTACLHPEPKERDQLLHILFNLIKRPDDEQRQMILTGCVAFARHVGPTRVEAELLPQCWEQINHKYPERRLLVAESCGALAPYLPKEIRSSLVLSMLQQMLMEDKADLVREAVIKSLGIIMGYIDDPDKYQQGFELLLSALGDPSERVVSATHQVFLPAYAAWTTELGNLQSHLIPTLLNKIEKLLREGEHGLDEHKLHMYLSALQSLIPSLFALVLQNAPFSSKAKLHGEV

untagged RELCH = molecular target: T3, untagged RELCH (mouse, UniProt Q148V7 1-1216); test: silica bead-based liposome binding assay; silica beads coated with RE-like liposomes (DOGS-NTA(Ni), Rho-PE) prebound with 5 µM Rab11a (Q70A)-His, then 200 nM untagged RELCH, 30 min at 4°C in HKM buffer with 1 mM GTP and BSA; stained with Rab11 or RELCH antibodies; details: both partners purified
T3 construct: RELCH/KIAA1468, mouse, cDNA NM_173187.3, with an N-terminal PreScission protease recognition site; no limits are stated; Residues of the PreScission site may be left at the N-terminus after cleavage; source: E. coli XL-1 blue (pQE32), purified (Ni-NTA agarose), His tag removed with PreScission protease; not shown: His, N-terminal, cleaved
T3 sequence (looked up): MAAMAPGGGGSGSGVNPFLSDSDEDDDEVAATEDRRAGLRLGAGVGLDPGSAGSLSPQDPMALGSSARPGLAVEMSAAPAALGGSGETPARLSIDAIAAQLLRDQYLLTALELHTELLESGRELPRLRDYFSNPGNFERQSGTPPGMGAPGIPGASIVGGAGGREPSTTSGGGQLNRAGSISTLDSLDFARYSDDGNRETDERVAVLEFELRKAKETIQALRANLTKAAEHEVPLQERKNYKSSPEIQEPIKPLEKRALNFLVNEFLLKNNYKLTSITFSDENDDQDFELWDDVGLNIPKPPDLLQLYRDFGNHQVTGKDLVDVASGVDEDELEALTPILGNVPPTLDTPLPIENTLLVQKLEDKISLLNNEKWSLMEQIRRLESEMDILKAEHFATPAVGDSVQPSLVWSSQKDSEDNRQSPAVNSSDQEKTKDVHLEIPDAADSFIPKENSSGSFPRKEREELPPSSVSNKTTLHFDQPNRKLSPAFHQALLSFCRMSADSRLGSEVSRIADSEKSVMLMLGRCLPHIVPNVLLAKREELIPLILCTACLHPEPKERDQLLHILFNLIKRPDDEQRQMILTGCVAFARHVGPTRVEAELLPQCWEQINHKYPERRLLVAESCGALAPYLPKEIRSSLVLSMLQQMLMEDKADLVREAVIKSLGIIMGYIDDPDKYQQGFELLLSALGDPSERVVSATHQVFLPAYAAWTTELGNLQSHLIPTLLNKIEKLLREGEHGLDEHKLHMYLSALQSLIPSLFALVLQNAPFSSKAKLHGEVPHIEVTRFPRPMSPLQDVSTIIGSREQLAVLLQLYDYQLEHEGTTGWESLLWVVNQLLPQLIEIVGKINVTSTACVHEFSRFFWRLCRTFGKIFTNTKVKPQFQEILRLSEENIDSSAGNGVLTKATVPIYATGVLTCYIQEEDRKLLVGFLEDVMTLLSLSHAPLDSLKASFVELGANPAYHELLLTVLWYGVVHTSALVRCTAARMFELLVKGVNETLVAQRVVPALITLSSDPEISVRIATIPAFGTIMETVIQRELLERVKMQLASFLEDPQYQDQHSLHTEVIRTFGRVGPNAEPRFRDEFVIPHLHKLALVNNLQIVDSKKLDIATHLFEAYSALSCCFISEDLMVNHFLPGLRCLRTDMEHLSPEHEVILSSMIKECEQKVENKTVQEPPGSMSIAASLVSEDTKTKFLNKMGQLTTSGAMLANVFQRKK

His-RELCH [2] = molecular target: T4, His-RELCH (mouse, UniProt Q148V7 1-1216); test: pull-down; 10 µg GST-Rab11a Q70A (GTP) on 20 µl Glutathione Sepharose 4B, 20 µg His-RELCH in 500 µl; immunoblot with RELCH and GST antibodies; details: both partners purified
T4 construct: RELCH/KIAA1468, mouse, cDNA NM_173187.3 amplified from a mouse embryo cDNA library; no limits are stated for this construct (deletion constructs are named by their ranges); also called purified recombinant RELCH; His-RELCH protein; source: E. coli XL-1 blue (pQE32tev), purified (Ni-NTA agarose); not shown: His, N-terminal, kept
T4 sequence (looked up): T3 sequence (looked up)

His-RELCH [3] = molecular target: T4, His-RELCH; test: pull-down; 0.5 µg His-RELCH on Ni-NTA beads, 0.5 µg Flag-OSBP in 20 mM Hepes-NaOH pH 7.5, 100 mM NaCl, 5 mM MgCl2 with ethanol, cholesterol or 25-OH, 1 h at 4°C; immunoblot with His and Flag antibodies; details: both partners purified

T1 sequence (P84077 2-181 Q71L partner, one chain of several): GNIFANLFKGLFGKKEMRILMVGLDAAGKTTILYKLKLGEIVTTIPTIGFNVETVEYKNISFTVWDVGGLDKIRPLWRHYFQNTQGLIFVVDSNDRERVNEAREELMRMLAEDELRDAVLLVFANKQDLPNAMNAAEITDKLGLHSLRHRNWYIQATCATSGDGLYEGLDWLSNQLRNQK

Molecule: CC(C)[C@@H](C)/C=C/[C@@H](C)[C@H]1CC[C@H]2C3=CC=C4C[C@@H](O)CC[C@]4(C)C3=CC[C@]12C [DHE, dehydroergosterol]
liposome sterol transfer, DHE to dansyl-PE FRET (OSBP): the DHE transfer occurred in a RELCH dose-dependent manner

B1: Rab11a (Q70A)-His, loaded with GTP (natural protein, mouse, UniProt P62492 1-216, looked up)
chain: MGTRDDEYDYLFKVVLIGDSGVGKSNLLSRFTRNEFNLESKSTIGVEFATRSIQVDGKTIKAQIWDTAGAERYRAITSAYYRGAVGALLVYDIAKHLTYENVERWLKELRDHADSNIVIMLVGNKSDLRHLRAVPTDEARAFAEKNGLSFIETSALDSTNVEAAFQTILTEIYRIVSQKQMSDRRENDMSPSNNVVPIHVPPTTENKPKVQCCQNI
notes: Rab11a, mouse, GTP-locked mutant Q70A, cloned without a stop codon into pET28c; Loaded with GTP in the assays; on liposomes it is held through its His tag by DOGS-NTA(Ni); also called His6×-tagged Rab11a-GTP; Rab11a-GTP; source: E. coli Rosetta II (pET28c), purified (cOmplete His-tag purification resin, EDTA wash, nucleotide-free); not shown: His6, C-terminal, kept
binding result [1]: binds | binding result (untagged RELCH): binds

Results, then the molecule that gave them:

binding result (His-RELCH [2]): binds
B2: GST-Rab11a Q70A, loaded with GTP (natural protein, UniProt P62491 1-216, looked up)
chain: B1 chain
notes: Rab11a; GTP-locked mutant Q70A; the pFAT2 His-GST-Rab constructs were made as in Haas et al., 2005 and Yoshimura et al., 2007; also called GTP-loaded Rab11a; GST-Rab11-GTP; source: E. coli Rosetta II (pFAT2), purified (Ni-NTA agarose); not shown: GST, N-terminal, kept

binding result (His-RELCH [3]): binds
B3: Flag-OSBP, full length (natural protein, human, UniProt P22059 1-807, looked up)
chain: MAATELRGVVGPGPAAIAALGGGGAGPPVVGGGGGRGDAGPGSGAASGTVVAAAAGGPGPGAGGVAAAGPAPAPPTGGSGGSGAGGSGSAREGWLFKWTNYIKGYQRRWFVLSNGLLSYYRSKAEMRHTCRGTINLATANITVEDSCNFIISNGGAQTYHLKASSEVERQRWVTALELAKAKAVKMLAESDESGDEESVSQTDKTELQNTLRTLSSKVEDLSTCNDLIAKHGTALQRSLSELESLKLPAESNEKIKQVNERATLFRITSNAMINACRDFLMLAQTHSKKWQKSLQYERDQRIRLEETLEQLAKQHNHLERAFRGATVLPANTPGNVGSGKDQCCSGKGDMSDEDDENEFFDAPEIITMPENLGHKRTGSNISGASSDISLDEQYKHQLEETKKEKRTRIPYKPNYSLNLWSIMKNCIGKELSKIPMPVNFNEPLSMLQRLTEDLEYHELLDRAAKCENSLEQLCYVAAFTVSSYSTTVFRTSKPFNPLLGETFELDRLEENGYRSLCEQVSHHPPAAAHHAESKNGWTLRQEIKITSKFRGKYLSIMPLGTIHCIFHATGHHYTWKKVTTTVHNIIVGKLWIDQSGEIDIVNHKTGDKCNLKFVPYSYFSRDVARKVTGEVTDPSGKVHFALLGTWDEKMECFKVQPVIGENGGDARQRGHEAEESRVMLWKRNPLPKNAENMYYFSELALTLNAWESGTAPTDSRLRPDQRLMENGRWDEANAEKQRLEEKQRLSRKKREAEAMKATEDGTPYDPYKALWFERKKDPVTKELTHIYRGEYWECKEKQDWSSCPDIF
notes: OSBP, human, amplified from pOTB7-OSBP, in pcDNA5/FRT/TO-Flag; also called Flag-tagged OSBP; source: HEK293FT, transfected, in lysate; Flp-In–293, transfected, in lysate; not shown: Flag, N-terminal, kept
